The values below are quoted from earlier work in PMC4089558.

This series concerns the target CFP10 (Mycobacterium tuberculosis) (UniProt P9WNK5).

pKd: −log10 of the molar value.

Sequence of ESAT-6 (P9WNK7 2-95): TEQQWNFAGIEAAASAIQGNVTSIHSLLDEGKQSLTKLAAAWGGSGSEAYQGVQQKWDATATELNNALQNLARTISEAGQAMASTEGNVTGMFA
Sequence of CFP10 (Mycobacterium tuberculosis) (P9WNK5 2-100): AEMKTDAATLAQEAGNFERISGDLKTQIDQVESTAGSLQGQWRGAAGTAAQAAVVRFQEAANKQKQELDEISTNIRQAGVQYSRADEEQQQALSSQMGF

With ESAT-6 (from UniProt P9WNK7), the negative-log Kd (pKd) was 7.96.

One may read the pKd as the negative decadic logarithm of the Kd, by convention in mol/L.
